Results as given in PMC3145545 (Molecular Biology of the Cell, 2011).

B1: Pac11 1-86 VQ51,52DA (site 1 mutant) (domain or fragment)
chain: MERLKQLEEKRRQLKELRERRKQASLFPGSETMGHHPTEVHAKATMVSVSDATDMEEGSKIQEPQSAYLRRKEVITYDKGIQTDQI
B2: Pac11 1-86 IQ81,82DA (site 2 mutant) (domain or fragment)
chain: MERLKQLEEKRRQLKELRERRKQASLFPGSETMGHHPTEVHAKATMVSVSVQTDMEEGSKIQEPQSAYLRRKEVITYDKGDATDQI
B3: Drosophila LC8 (dynein light chain) (natural protein)
chain: MSDRKAVIKNADMSEEMQQDAVDCATQALEKYNIEKDIAAYIKKEFDKKYNPTWHCIVGRNFGSYVTHETRHFIYFYLGQVAILLFKSG

Tests used:
[1] = target: B3; experiment: native gel or EMSA
[2] = target: B2; experiment: AUC
[3] = target: B1; experiment: AUC

binding result [1]	stoichiometry N [2]	stoichiometry N [3]	Binder
binds	–	–	B1
binds	–	–	B2
–	1 LC8 per Pac11	1 LC8 per Pac11	B3
